From PMC9129000, “RADA-dependent branch migration has a predominant role in plant mitochondria and its defect leads to mtDNA instability and cell cycle arrest” come the findings set out here.

For this data set, the target named is T1, RADA K201A (Arabidopsis thaliana, UniProt F4K8X8 49-627, K201A).
T1 sequence: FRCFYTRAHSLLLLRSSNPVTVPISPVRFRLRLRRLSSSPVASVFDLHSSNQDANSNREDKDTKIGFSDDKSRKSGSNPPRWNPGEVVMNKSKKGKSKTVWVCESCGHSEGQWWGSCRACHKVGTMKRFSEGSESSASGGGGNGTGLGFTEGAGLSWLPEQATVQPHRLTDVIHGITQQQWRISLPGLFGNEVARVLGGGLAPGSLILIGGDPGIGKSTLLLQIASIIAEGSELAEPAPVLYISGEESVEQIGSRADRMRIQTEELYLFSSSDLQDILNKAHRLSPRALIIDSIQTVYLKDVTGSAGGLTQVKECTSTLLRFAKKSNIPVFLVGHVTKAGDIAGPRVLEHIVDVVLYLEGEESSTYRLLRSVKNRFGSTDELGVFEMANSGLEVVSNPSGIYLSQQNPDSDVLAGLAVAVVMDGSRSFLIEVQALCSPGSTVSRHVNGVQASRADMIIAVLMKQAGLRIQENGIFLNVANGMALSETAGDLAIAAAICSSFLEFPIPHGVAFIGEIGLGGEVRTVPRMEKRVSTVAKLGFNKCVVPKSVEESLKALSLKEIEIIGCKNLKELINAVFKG
The data set can be described thus: EMSA; affinity comparable to WT; 20 mM Tris-HCl pH 7.5, 50 mM KCl, 5 mM MgCl2, 0.5 mM EDTA, 10% glycerol, 1 mM DTT, protease inhibitors; 20 C, 20 min; 8 or 4.5% PAGE in TBE at 4 C. The settings on record: protein: recombinant; tags: N-terminal His (pET28a); chain copies: 6; label: 5'-32P; single strand. (In general: Mobility shift assays separate free from complexed probe on a gel.)

B1: EMSA ssDNA (ssDNA)
DNA: GACGCTGCCGAATTCTACCAGTGCCTTGCTAGGACATCTTTGCCCACCTGCAGGTTCACCC
Turning to B1, the binding result is reported as “binds”.
